Reference: US12534541B2, “Anti-PTK7 antibody and uses thereof” (MABCARE THERAPEUTICS, priority 2023, dated 2026)

How the values were obtained:
[1] = Size exclusion chromatography (SEC) for the degree of aggregation; format: physicochemical; settings: integral analysis, product after preparation
Description: (§1) Activated charcoal powder (30 mg of powder per ml of liquid) was then added to the collection solution, which was suspended for 2 h at room temperature, centrifuged, and sterilized using a 0.22 μm filter membrane, and the activated charcoal particles were removed at the same time. The resulting product was calculated by UV for its concentration and DAR value, detected by hydrophobic chromatography (HIC) for product homogeneity, and detected by size exclusion chromatography (SEC) for the degree of aggregation. The products were placed in a refrigerator at −80° C. for cryopreservation.
as §1, with “At the end of the reaction, the coupling reaction mixture was immediately desalted and exchanged with histidine-acetic acid/NaCl buffer using a desalting column. Activated” for “Activated”, “product was” for “products were”, “cryopreservation. […]” for “cryopreservation.”

OVCAR-3 cells = experiment: In vivo anti-tumor activity against human ovarian cancer cell line OVCAR-3; settings: OVCAR-3 in NCG mice, i.v. 3 mg/kg or 5 mg/kg, 1 dose, vs negative control
Description: 6-week-old NCG mice, female, weighing 18-21 g, were purchased from Beijing Vital River Laboratory Animal Technology Co., Ltd. The mice were subcutaneously inoculated with OVCAR-3 cells (Human Ovarian Cancer Cells, ATCC, Catalog No. HTB-161). When the average tumor volume reached 150 mm^3, the antibody-drug conjugates Ab13-T1000-exatecan and h6M24-T1000-exatecan as prepared in Example 5 and the antibody-drug conjugate Ab13-vc0101 and h6M24-vc0101 as prepared in Example 8 were administered intravenously at a dose of 3 mg/kg or 5 mg/kg, respectively, and a negative control Vehicle group was set and administered intravenously with PBS at an equal dose, once a week for a total of 1 dose. After dosing, the tumor volume was measured twice a week using a vernier caliper and calculated according to the following formula: TV=(length*width^2)/2.

B1: h6M24-vc0101: control drug: h6M24 (cofetuzumab) linked to Aur0101 via mc-VC-PAB linker, DAR about 4 (conjugate, chains of the INN, looked up)
VH: QVQLVQSGPEVKKPGASVKVSCKASGYTFTDYAVHWVRQAPGKRLEWIGVISTYNDYTYNNQDFKGRVTMTRDTSASTAYMELSRLRSEDTAVYYCARGNSYFYALDYWGQGTSVTVSS
VL: EIVLTQSPATLSLSPGERATLSCRASESVDSYGKSFMHWYQQKPGQAPRLLIYRASNLESGIPARFSGSGSGTDFTLTISSLEPEDFAVYYCQQSNEDPWTFGGGTKLEIK
modifications: Aur0101 via mc-VC-PAB linker, DAR 4
percentage of aggregates [1]: 1.39%
tumor growth inhibition (tumor volume over time) (OVCAR-3 cells): less effective in inhibiting tumor growth
